Molecular target: Human FANCD2, non-tagged (human, UniProt Q9BXW9-2 1-1451)
Experiment: co-IP

Sequence of Human FANCD2, non-tagged (Q9BXW9 whole entry): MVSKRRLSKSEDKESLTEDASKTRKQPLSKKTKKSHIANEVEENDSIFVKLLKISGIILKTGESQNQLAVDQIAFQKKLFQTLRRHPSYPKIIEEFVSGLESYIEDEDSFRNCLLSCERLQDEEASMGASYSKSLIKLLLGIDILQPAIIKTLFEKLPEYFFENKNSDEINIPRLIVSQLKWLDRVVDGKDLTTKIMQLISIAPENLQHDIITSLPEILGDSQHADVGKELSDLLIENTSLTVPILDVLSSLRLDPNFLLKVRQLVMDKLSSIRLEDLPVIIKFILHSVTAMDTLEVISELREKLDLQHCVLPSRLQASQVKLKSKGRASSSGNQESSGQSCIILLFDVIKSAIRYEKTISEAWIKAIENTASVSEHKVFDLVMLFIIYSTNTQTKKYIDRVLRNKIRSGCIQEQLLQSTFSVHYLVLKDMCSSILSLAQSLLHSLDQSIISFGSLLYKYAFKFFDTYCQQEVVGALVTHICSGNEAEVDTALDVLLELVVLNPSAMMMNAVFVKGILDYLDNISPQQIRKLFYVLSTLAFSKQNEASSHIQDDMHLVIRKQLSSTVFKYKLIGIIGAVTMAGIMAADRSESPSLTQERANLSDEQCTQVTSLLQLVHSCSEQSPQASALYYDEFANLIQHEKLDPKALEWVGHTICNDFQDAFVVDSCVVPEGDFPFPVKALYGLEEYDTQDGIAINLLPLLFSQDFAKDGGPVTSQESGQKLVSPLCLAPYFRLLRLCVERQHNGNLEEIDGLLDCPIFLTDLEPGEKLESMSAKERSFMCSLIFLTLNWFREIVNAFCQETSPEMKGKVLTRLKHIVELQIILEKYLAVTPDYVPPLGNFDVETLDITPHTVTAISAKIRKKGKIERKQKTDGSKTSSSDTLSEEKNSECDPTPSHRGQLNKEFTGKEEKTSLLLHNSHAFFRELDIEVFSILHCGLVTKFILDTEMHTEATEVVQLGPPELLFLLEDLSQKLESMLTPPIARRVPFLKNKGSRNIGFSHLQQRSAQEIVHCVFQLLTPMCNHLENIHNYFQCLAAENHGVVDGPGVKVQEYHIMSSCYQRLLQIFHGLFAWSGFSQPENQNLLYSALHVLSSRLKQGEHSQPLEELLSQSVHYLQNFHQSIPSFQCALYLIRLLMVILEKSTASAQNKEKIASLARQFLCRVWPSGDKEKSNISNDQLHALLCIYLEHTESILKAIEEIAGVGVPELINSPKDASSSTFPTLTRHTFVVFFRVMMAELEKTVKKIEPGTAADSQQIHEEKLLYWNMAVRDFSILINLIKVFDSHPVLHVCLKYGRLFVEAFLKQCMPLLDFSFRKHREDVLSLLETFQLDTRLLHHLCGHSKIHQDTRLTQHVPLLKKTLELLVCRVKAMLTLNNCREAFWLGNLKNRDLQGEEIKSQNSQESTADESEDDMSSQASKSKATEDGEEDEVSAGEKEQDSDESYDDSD

Row | Binder | binding result
1 | FANCI-(1001–1328), hexahistidine-tagged (domain or fragment, human, UniProt Q9NVI1-3 1001-1328, looked up) PQFVQMLSWTSKICKENSREDALFCKSLMNLLFSLHVSYKSPVILLRDLSQDIHGHLGDIDQDVEVEKTNHFAIVNLRTAAPTVCLLVLSQAEKVLEEVDWLITKLKGQVSQETLSEEASSQATLPNQPVEKAIIMQLGTLLTFFHELVQTALPSGSCVDTLLKDLCKMYTTLTALVRYYLQVCQSSGGIPKNMEKLVKLSGSHLTPLCYSFISYVQNKSKSLNYTGEKKEKPAAVATAMARVLRETKPIPNLIFAIEQYEKFLIHLSKKSKVNLMQHMKLSTSRDFKIKGNILDMVLREDGEDENEEGTASEHGGQNKEPAKKKRKK | binds
2 | FANCI-D1301A, hexahistidine-tagged (EDGE motif mutant) (natural protein, human, UniProt Q9NVI1-3 1-1328, looked up) MDQKILSLAAEKTADKLQEFLQTLREGDLTNLLQNQAVKGKVAGALLRAIFKGSPCSEEAGTLRRRKIYTCCIQLVESGDLQKEIASEIIGLLMLEAHHFPGPLLVELANEFISAVREGSLVNGKSLELLPIILTALATKKENLAYGKGVLSGEECKKQLINTLCSGRWDQQYVIQLTSMFKDVPLTAEEVEFVVEKALSMFSKMNLQEIPPLVYQLLVLSSKGSRKSVLEGIIAFFSALDKQHNEEQSGDELLDVVTVPSGELRHVEGTIILHIVFAIKLDYELGRELVKHLKVGQQGDSNNNLSPFSIALLLSVTRIQRFQDQVLDLLKTSVVKSFKDLQLLQGSKFLQNLVPHRSYVSTMILEVVKNSVHSWDHVTQGLVELGFILMDSYGPKKVLDGKTIETSPSLSRMPNQHACKLGANILLETFKIHEMIRQEILEQVLNRVVTRASSPISHFLDLLSNIVMYAPLVLQSCSSKVTEAFDYLSFLPLQTVQRLLKAVQPLLKVSMSMRDCLILVLRKAMFANQLDARKSAVAGFLLLLKNFKVLGSLSSSQCSQSLSVSQVHVDVHSHYNSVANETFCLEIMDSLRRCLSQQADVRLMLYEGFYDVLRRNSQLANSVMQTLLSQLKQFYEPKPDLLPPLKLEACILTQGDKISLQEPLDYLLCCIQHCLAWYKNTVIPLQQGEEEEEEEEAFYEDLDDILESITNRMIKSELEDFELDKSADFSQSTSIGIKNNICAFLVMGVCEVLIEYNFSISSFSKNRFEDILSLFMCYKKLSDILNEKAGKAKTKMANKTSDSLLSMKFVSSLLTALFRDSIQSHQESLSVLRSSNEFMRYAVNVALQKVQQLKETGHVSGPDGQNPEKIFQNLCDITRVLLWRYTSIPTSVEESGKKEKGKSISLLCLEGLQKIFSAVQQFYQPKIQQFLRALDVTDKEGEEREDADVSVTQRTAFQIRQFQRSLLNLLSSQEEDFNSKEALLLVTVLTSLSKLLEPSSPQFVQMLSWTSKICKENSREDALFCKSLMNLLFSLHVSYKSPVILLRDLSQDIHGHLGDIDQDVEVEKTNHFAIVNLRTAAPTVCLLVLSQAEKVLEEVDWLITKLKGQVSQETLSEEASSQATLPNQPVEKAIIMQLGTLLTFFHELVQTALPSGSCVDTLLKDLCKMYTTLTALVRYYLQVCQSSGGIPKNMEKLVKLSGSHLTPLCYSFISYVQNKSKSLNYTGEKKEKPAAVATAMARVLRETKPIPNLIFAIEQYEKFLIHLSKKSKVNLMQHMKLSTSRDFKIKGNILDMVLREAGEDENEEGTASEHGGQNKEPAKKKRKK | binds
